Measurements: patent publication US20260216242A1, “ALPP-SPECIFIC VARIANT ANTIGEN BINDING MOLECULES” (ALMAC DISCOVERY LIMITED, priority 2022, published 2026)
Positions count from the first letter of the chain named.

T1: ALPI His homodimer (Homo sapiens, UniProt P09923)
T1 sequence (P09923 with tags, fused parts or gaps): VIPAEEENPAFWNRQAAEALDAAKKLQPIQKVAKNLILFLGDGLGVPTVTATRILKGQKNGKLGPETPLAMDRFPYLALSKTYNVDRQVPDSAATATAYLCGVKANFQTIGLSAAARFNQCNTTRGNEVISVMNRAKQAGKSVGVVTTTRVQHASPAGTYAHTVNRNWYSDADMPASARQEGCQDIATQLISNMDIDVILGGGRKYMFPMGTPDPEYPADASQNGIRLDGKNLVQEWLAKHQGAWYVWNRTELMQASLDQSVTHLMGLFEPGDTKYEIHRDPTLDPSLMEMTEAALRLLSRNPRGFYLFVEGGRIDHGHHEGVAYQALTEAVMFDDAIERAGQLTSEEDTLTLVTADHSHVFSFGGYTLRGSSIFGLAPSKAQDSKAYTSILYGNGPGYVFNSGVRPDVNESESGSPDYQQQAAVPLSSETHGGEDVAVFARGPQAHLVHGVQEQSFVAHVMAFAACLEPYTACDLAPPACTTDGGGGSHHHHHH

B1: B09: ALPP targeting VHH domain, SEQ ID NO: 21 (protein)
VHH: QVQLVESGGGSVQAGGSLRLSCAASGPSLSHYAMGWFRQAPGKEREFVAGISWGGGRTSYTDSVKGRFTISRDNAKNTVYLQMNNLKPEDTGVYYCAGRYGRGRNVEYEYDYWGQGTQVTVSS
B2: D08: ALPP targeting VHH domain, SEQ ID NO: 27 (protein)
VHH: B1 VHH with Q3H, H31N, Q118K
B3: H09: ALPP targeting VHH domain, SEQ ID NO: 39 (protein)
VHH: B1 VHH with A14T, H31N, S59N, T61L, V79M, N85S, G92A, N105D
B4: E12: ALPP targeting VHH domain, SEQ ID NO: 33 (protein)
VHH: B1 VHH with L29I, H31N, Y32F, S59N, T61L, T78M, Y80H, N85S, G92T, N105D
B5: A12: ALPP targeting VHH domain, SEQ ID NO: 19 (protein)
VHH: B1 VHH with Q3H, S7C, S17F, H31N, W36R, K87E, Q118K
B6: C06: ALPP targeting VHH domain, SEQ ID NO: 24 (protein)
VHH: B1 VHH with S11L, A14P, L20V, H31N
B7: H10: ALPP targeting VHH domain, SEQ ID NO: 40 (protein)
VHH: B1 VHH with A14T, H31N, S59N, T61L, V79M, N85S, T91A, G92A, N105D
B8: F09: ALPP targeting VHH domain, SEQ ID NO: 36 (protein)
VHH: B1 VHH with H31N, Y60C
B9: D11: ALPP targeting VHH domain, SEQ ID NO: 29 (protein)
VHH: B1 VHH with H31N, Q118M
B10: E11: ALPP targeting VHH domain, SEQ ID NO: 32 (protein)
VHH: B1 VHH with H31N, Y32F, A40P
B11: B11: ALPP targeting VHH domain, SEQ ID NO: 22 (protein)
VHH: B1 VHH with Q3H, H31N
B12: G03: ALPP targeting VHH domain, SEQ ID NO: 38 (protein)
VHH: QVQLVESGGGTAQAGGSLRLACAASGRSVTMGWLGWVPRAERDDLEFITWFNWGTYYANSVNGRFTISTDNADNTVYPQMNRLKPENPAVYYCASFTGYRPLINRLNDVSDCGHGALVAVSS
B13: F12: ALPP targeting VHH domain, SEQ ID NO: 37 (protein)
VHH: QVQLVESGGGLVEAGGSLRLSCAVSGSALSDYNIGWFRQAPGKEREFVARKTWDGSSTKYDDSVKGRFTVSIDNAKNTAYLQMNSLKTEDTAVYYCAAGRYSRVRGWEYDYWGQRTQVTVSS
B14: A08: ALPP targeting VHH domain, SEQ ID NO: 18 (protein)
VHH: QVQLVESGGGLVQAGESLRLACAASGTIFSGNAVGWYRQAPEKQREWVSSITDYGDTDYAEAVKGRFTISRDNAKNTVYLQMNSLKPEDTAVYYCYVYQRGESEEYWGQGTKVTVSS
B15: C05: ALPP targeting VHH domain, SEQ ID NO: 23 (protein)
VHH: QVQLVESGGGLVQAGGSLRLSCAASRRSFSEYAMGWFRQAPGKEREFVAAIGWSGVIEYADSVKGRFTISRDNAKDTVYLQMNSLKPEDTAVYYCAAGLGIRVVSQTPAYWGQGTQVTVSS

Molecular target: T2, ALPP (Homo sapiens, UniProt P05187)
T2 sequence (P05187 with tags, fused parts or gaps): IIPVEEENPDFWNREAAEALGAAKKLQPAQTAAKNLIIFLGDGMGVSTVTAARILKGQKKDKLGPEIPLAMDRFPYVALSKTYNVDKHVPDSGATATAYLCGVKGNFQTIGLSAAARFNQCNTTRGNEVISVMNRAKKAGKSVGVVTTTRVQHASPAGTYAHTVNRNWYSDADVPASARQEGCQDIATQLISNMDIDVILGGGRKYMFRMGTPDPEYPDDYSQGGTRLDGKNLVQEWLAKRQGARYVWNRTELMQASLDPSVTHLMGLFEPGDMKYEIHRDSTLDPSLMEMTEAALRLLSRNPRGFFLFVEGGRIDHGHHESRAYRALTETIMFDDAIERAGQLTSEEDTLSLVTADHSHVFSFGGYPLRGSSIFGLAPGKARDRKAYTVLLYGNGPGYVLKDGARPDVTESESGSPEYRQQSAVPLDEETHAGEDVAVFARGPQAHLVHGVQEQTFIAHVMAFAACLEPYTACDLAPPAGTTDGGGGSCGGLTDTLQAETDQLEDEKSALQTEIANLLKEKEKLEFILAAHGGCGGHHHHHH
Test: BLI binding kinetics, human ALPP immobilised on AR2G sensors (KD / KD apparent)
Conditions: VHH domains
Description: Binding kinetics were determined using the Biolayer Interferometry (BLI) Octet K2 system (Sartorius). Human ALPP, ALPPL2, ALPL (each fused with a cysteine stabilised leucine zipper) and ALPI, (SEQ ID NO: 265, SEQ ID NO: 266 and SEQ ID NO: 267 and SEQ ID NO: 264 respectively) were immobilised in sodium acetate pH5 buffer to AR2G sensors using amine coupling. All assays were conducted in PBS with a plate temperature of 25° C. Ka (M^−1s^−1), Kd (s^−1) and KD (nM) values were determined using Octet Data Analysis High Throughput software (ForteBio) for Biolayer Interferometry.
(§1) Binding kinetics were determined using the Biolayer Interferometry (BLI) Octet K2 or R4 system (Sartorius). Human ALPP, ALPPL2 and ALPL all fused with a disulphide stabilised leucine zipper (SEQ ID NO: 265, SEQ ID NO: 266, and SEQ ID NO: 267) and ALPI His (SEQ ID NO: 264) were used in BLI experiments. For KD apparent measurements, the ALPP proteins were immobilised in sodium acetate pH5 buffer to AR2G sensors using amine coupling. To measure 1:1 interactions, AHC biosensors were used to immobilise Fc-fused proteins. All assays were conducted in HBS-EP with a plate temperature of 25° C. Ka (M^−1s^−1), Kd (s^−1) and KD (nM) values were determined using Octet Data Analysis High Throughput software (Sartorius) for Biolayer Interferometry.
as §1, with “NO:264)” for “NO: 264)”

Row | hALPP Ka [M⁻¹ s⁻¹] | hALPP Kd [s⁻¹] | Molecule
1 | 237000 | <1e-07 | B1
2 | 175000 | <1e-07 | B2
3 | 58600 | <1e-07 | B3
4 | 39200 | 0.000028 | B4
5 | 360000 | <1e-07 | B5
6 | 368000 | <1e-07 | B6
7 | 45900 | 0.0000085 | B7
8 | 40600 | <1e-07 | B8
9 | 97700 | <1e-07 | B9
10 | 149000 | 0.0000018 | B10
11 | 213000 | 0.000017 | B11
12 | 47400 | <1e-07 | B12
13 | 38600 | <1e-07 | B13
14 | 429000 | 0.000012 | B14
15 | 394000 | <1e-07 | B15

Same assay, conditions: VHH domains (His-tagged monomers), PBS, 25° C., read-out: hALPP KD

Row | Kd [nM] | Molecule
16 | < 0.01 | B5
17 | < 0.01 | B12

Molecular target: T1, ALPI His homodimer
Test: ELISA binding to ALPI
Conditions: 500 ng purified VHH
Description: ELISA was used to test the binding and specificity of the VHHs. ALPP CysHis (SEQ ID NO: 263), ALPI His homodimer (SEQ ID NO: 264) or BSA (Thermo Fisher) were coated onto plates and 500 ng of each purified VHH added. Anti-Llama—HRP antibody was used for detection.

Row | ELISA hALPI | Molecule
18 | No Binding | B1
19 | No Binding | B2
20 | No Binding | B3
21 | No Binding | B4
22 | No Binding | B5
23 | No Binding | B6
24 | No Binding | B7
25 | No Binding | B8
26 | No Binding | B9
27 | No Binding | B10
28 | No Binding | B11
29 | No Binding | B12
30 | No Binding | B13
31 | No Binding | B14
32 | No Binding | B15

Tested on: not listed separately
Test: Thermal stability (Protein Thermal Shift assay)
Assay type: physicochemical
Conditions: VHH domains, first derivative analysis
Description: Thermal stability assays used Applied Biosystems StepOne Real Time PCR system with the Protein Thermal Shift™ dye kit (Thermo Fisher). The assay mix was set up so that the protein was at a final concentration of 20 µM in 20 μL. 5 μL of Thermal Shift™ buffer was added alongside 2.5 μL 8× Thermal Shift™ Dye. Assays were run using the StepOne software and data analysed using Protein Thermal Shift™ software. All data are from first derivative analysis.

Row | Molecule | Tm [°C]
33 | B1 | 77.1
34 | B2 | 64.9
35 | B3 | 68.8
36 | B4 | 55.5
37 | B5 | 76.3
38 | B6 | 71.6
39 | B7 | 64.9
40 | B8 | 72.1
41 | B9 | 78.1
42 | B10 | 78.0
43 | B11 | 77.4
44 | B12 | 74.0
45 | B13 | 62.9
46 | B14 | 71.4
47 | B15 | 80.6

Molecular target: T2, ALPP
Test: Epitope binning by BLI competition assay
Assay type: binding
Conditions: BLI competition on immobilised ALPP
Description: To determine epitope cross reactivity BLI competition assays were conducted. AR2G sensors were used and ALPP immobilised as above. ALPP sensors were then dipped into a well containing a saturating concentration of the initial binder for ten minutes to get an association curve. The sensor was then dipped into a well containing the same concentration of initial binder plus 20 nM of a secondary binding.
An increase in the association curve was indicative that the second VHH bound to a distinct epitope from the initial binder. Monomers with identical CDR3s were grouped as likely to be in the same epitope bin and only one from each group used in the epitope binning experiment.

Row | epitope bin | Molecule
48 | one | B1
49 | one | B11
50 | one | B12
